Biological target: soluble FixL (FixL_(118–495), missing the transmembrane domain) (Caulobacter crescentus)

- accumulation of autophosphorylated FixL ([γ-32P]ATP, 30-minute time course; FixL 5 μM, FixJ(D55A) 20 μM, FixT 80 μM): 3 fold
Substance: Caulobacter crescentus FixT (natural protein)

Reference: publication PMC7078487
